The numbers were not newly measured in patent US4260682A, “High sensitivity assays for angiotensin converting enzyme” (priority 1979, dated 1981), which cites them from elsewhere.

Square brackets hold non-standard residues; d marks the D form. Ends that are not written are not given here. pGlu = O=C1CC[C@@H](C(=O)O)N1

Data set [1] concerns ACE. The following applies: cited from earlier work.
Data set [2] addresses T1, ACE (Oryctolagus cuniculus, UniProt P12822).
T1 sequence (P12822 34-1310): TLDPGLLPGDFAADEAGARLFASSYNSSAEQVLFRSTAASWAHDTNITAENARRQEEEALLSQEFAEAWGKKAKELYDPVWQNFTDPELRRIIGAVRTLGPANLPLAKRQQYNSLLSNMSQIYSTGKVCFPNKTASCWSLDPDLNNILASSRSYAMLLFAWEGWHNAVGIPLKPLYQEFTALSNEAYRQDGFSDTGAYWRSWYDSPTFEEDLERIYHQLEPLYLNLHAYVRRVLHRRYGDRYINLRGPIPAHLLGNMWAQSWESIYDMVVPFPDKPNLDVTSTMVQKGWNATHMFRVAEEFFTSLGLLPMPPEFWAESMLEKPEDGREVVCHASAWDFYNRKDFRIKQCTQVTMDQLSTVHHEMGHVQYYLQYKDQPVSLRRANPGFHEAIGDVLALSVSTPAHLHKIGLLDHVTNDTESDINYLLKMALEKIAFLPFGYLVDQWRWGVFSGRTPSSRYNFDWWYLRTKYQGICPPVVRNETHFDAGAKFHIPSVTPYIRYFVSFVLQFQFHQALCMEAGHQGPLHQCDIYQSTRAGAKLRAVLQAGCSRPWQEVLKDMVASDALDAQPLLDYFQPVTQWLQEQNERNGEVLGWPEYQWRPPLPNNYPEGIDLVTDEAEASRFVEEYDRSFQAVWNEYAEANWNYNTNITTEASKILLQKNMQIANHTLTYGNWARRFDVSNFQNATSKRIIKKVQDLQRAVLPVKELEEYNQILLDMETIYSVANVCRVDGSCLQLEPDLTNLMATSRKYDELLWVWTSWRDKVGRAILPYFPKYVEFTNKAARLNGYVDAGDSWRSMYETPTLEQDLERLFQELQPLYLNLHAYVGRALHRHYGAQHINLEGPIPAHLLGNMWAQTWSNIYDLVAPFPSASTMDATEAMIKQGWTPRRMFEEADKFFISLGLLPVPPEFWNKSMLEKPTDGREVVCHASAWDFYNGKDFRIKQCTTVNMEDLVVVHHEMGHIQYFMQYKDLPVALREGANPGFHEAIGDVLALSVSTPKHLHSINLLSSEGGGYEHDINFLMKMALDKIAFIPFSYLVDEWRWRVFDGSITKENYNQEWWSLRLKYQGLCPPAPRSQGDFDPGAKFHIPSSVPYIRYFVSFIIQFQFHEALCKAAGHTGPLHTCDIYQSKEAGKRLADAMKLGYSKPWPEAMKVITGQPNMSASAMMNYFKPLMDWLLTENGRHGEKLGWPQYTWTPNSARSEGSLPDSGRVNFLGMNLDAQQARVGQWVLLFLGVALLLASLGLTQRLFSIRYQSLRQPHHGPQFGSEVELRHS
Conditions: cited from earlier work.

Consider <GluLysTrpAlaPro ([pGlu]KWAP) [BPP5a], for which the “competitive substrate of ACE” value in the data set on ACE [1] is on record as “competitive substrates”. Further, in the data set with ACE [2], the “substrate for the enzyme” value is “could serve as a substrate for the enzyme”. In the data set with ACE [2] (vs. buffer of undisclosed composition), the “cleavage in the presence of chloride” value is on record as “proceeded more slowly in the presence of chloride”.
